“Also recorded” adds a separate entry of the source.
Key:
[1] = Polypeptide drugs acute toxicity test; format: in vivo, Kunming white mice; settings: 1 g/kg tail intravenous injection; observed 24 hr
Experimental: Control group and experimental group contained 10 Kunming white mice, with 5 females and 5 males, respectively. Experimental group injected Anti-FAS-P18 with the concentration of 1 g/kg (2.5 mg dried polypeptide drug solved in 0.125 ml ddH2O) by tail intravenous injection; control group, injected 0.25 ml ddH2O. Consecutively observed the mice for 24 hr after injection.

NF-κB promoter = assay: Dual-luciferase reporter gene analysis, NF-κB promoter; format: cell-based; settings: HepG2 cells; synthesized polypeptide 0.1 μM, 1 μM, 10 μM and 100 μM; 24 hr incubation
Description: (§1) Hepatoma cell line HepG2 was adopted in the experiment. Because SREBP-1c is upstream transcription regulatory factor of FAS, whether there is inhibition of SREBP-1c promoter activity at the molecular level can be used to reflect the transcription state of FAS gene by reporter gene assays. Meanwhile, the detection of FAS promoter activity can directly reflect whether the transcription of FAS is inhibited or not. The nuclear factor κB (nuclear factor KB, NF-κB) is an import transcription factor, and increasing of NF-κB promoter activity indicates the increase of cell proliferation. Therefore, it can test the effects of the invention polypeptides on the proliferation of HepG2 cell by detection of NF-κB promoter activity and (3-(4,5-dimethylthiazol-2-yl)-2,5-diphenyltetrazolium bromide (MTT). […]
(7) Immediately put the EP tubes into a Luminometer (manufactured by Turner Biosystems). Within 10 sec after 2 sec balance, measured the luminescence.
(8) Added 100 μl fluorescence bleacher. […]
(9) Measured the luminescence within 10 sec.
The relative activity was the ratio of the value of the first luminescence to the value of the second luminescence.
Results shown are representative of three independent experiments according to Mean±SD, and statistical significance was calculated using Student's t test.

[2] = Weight of nude mice in the inoculation experiment; format: in vivo
Experimental: (§2) Suspended the HepG2 cells at exponential phase by treating with trypsin, and counted the number of cells to dilute to 1×10^7 cells/ml with physiological saline, and then store in the ice water. 12 Mice used were 4- to 6-week-old BALB/C females, and were randomly divided into two groups: (1) Control group, injected 0.2 ml diluted cells to the armpit of left forelimb for each mouse, and only injected 0.5 ml ddH2O (without polypeptide drugs); (2) experimental group (the treatment dose was 10 mg/kg), injected 0.2 ml diluted cells to the armpit of left forelimb for each mouse, and within 7 days after the injection, tumor volume (V=L×W^2×0.5) reached to 100 mm^3. And then, injected the above mentioned polypeptide drugs (dried polypeptide drug solved in 0.5 ml ddH2O) once in two day, total 10 times, and recorded the tumor volume before injection. Within 24 hr after the last dose, weighted the mice, and killed the mice to weight the tumor tissue, anti-tumor rate was calculated as follow: […]

HepG2 cells [3] = assay: MTT assay of cell proliferation of hepatoma cells; format: cell-based; settings: synthesized polypeptide 0.1 μM, 1 μM, 10 μM and 100 μM, 48 hr
Description: as §1, with “proliferation.” for “proliferation. Therefore, it can test the effects of the invention polypeptides on the proliferation of HepG2 cell by detection of NF-κB promoter activity and (3-(4,5-dimethylthiazol-2-yl)-2,5-diphenyltetrazolium bromide (MTT).”
(2) Culture the cells: Within 12 hr for adhesion of cultured cells, different amount of polypeptides plasmids from Step A (0.25 μg, 0.5 μg and 0.75 μg) or different concentrations of synthesized polypeptides from Example 1 (0.1 μM, 1 μM, 10 μM and 100 μM) were transfected with 8 wells for each concentration, and were incubated for 48 hr in the same condition. 0.3 μg pEGFP-C2 plasmids and 1 μg p-Anti-HBxP1# were cotransfected, and using a fluorescence microscope to check for cells containing the GFP plasmid after 24 hr to make sure the percentage of cells that contain GFP is over 70%; […]
(5) Comparison: Read in an ELISA reader at 490 nm to measure the absorbance for each well. Results were calculated by using Student's t-test.

HepG2 cells [4] = assay: Inoculation experiment in nude mice (HepG2 tumor growth); format: in vivo; settings: 10 mg/kg, once in two day, total 10 times
Experimental: as §2

Substance: Gly-Gly-Cys-Arg-His-Lys-Leu-Val-Cys-Ala-Pro-Ala-Pro-Cys-Asn-Phe-Phe-Thr [Anti-FAS-P18]
- abnormal behaviors after injection [1]: do not have abnormal behaviors
- changes in weight compared with control group [1]: no abnormal changes in weight compared with control group
- activity of NF-κB promoter (NF-κB promoter): inhibits the activity of NF-κB promoter in HepG2 cells in a dose-dependent manner
- impact on the weight of nude mice ([2]; 10 mg/kg, once in two day, total 10 times): no significantly impact on the weight of nude mice
- Weight (X ± S, g) After dose ([2]; body weight of mice after dose, 10 mg/kg, once in two day, total 10 times): 21.83 ± 0.82 g
- Weight (X ± S, g) Before dose ([2]; body weight of mice before dose, experimental group 10 mg/kg): 15.33 ± 0.75 g
- cell proliferation (MTT) (HepG2 cells [3]): inhibits cell proliferation in the HepG2 cells in a dose-dependent manner
- growth and proliferation of HepG2 cells in nude mice (HepG2 cells [4]): inhibits the growth and proliferation in the HepG2 cells; also recorded: inhibits the growth and proliferation of the HepG2 cells
- Anti-tumor rate (%) (HepG2 cells [4]; from tumor weight vs control): 43.06%
- Tumor Weight (X ± S, g) (HepG2 cells [4]; within 24 hr after the last dose): 0.42 ± 0.09 g
